Data on two molecules can be found in publication doi:10.1101/2020.03.26.992446.

The target of test [1] is purified DJ-1 V51C (N-terminal 6×His-tagged) (human) (UniProt Q99497). As to the kind of experiment: SEC.
In test [2] the target is T1, purified DJ-1 WT (N-terminal 6×His-tagged) (human), Q99497.
T1 chain: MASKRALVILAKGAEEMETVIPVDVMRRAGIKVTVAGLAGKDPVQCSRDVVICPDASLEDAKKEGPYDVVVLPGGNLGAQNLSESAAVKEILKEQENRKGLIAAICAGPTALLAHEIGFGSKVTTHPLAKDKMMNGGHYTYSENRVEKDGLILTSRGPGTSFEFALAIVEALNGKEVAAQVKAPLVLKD
As to the kind of experiment: SEC. Particulars: remark: other sources report otherwise.

As to “purified DJ-1 V51C (N-terminal 6×His-tagged) (from UniProt Q99497 1-189) (natural protein)”, the percent of protein that is dimer in test [1] stood at 15%.

B1: purified DJ-1 WT (N-terminal 6×His-tagged), Q99497 1-189 (natural protein)
chain: MASKRALVILAKGAEEMETVIPVDVMRRAGIKVTVAGLAGKDPVQCSRDVVICPDASLEDAKKEGPYDVVVLPGGNLGAQNLSESAAVKEILKEQENRKGLIAAICAGPTALLAHEIGFGSKVTTHPLAKDKMMNGGHYTYSENRVEKDGLILTSRGPGTSFEFALAIVEALNGKEVAAQVKAPLVLKD
In the case of B1, in test [2], the percent of protein that is dimer turned out to be 33% and the stoichiometry N was 2.

For orientation: stoichiometry N means a count of units in the complex or per binding partner.
